Results taken from patent US9632088B2, “Methods and compositions for gamma-secretase assay” (MEMORIAL SLOAN-KETTERING CANCER CENTER, priority 2010, dated 2017).
Blank lines part the entries; values can stand above or below the molecule they belong to.

Assays:
[1] = biological target: T1, E280A PS1 γ-secretase (Homo sapiens, UniProt P49768, E280A); assay: In vitro N1-Sb1 γ-secretase assay, membrane of N2a cells expressing E280A PS1; assay type: biochemical, murine; settings: E280A PS1, N2a membrane
T1 construct: total membrane
Method: (§1) HeLa membrane fraction was isolated from HeLa-S3 cells (National Cell Culture Center). The cell pellet was resuspended in Buffer A (50 mM MES, 150 mM KCl, 5 mM CaCl2, 5 mM MgCl2) and lysed by passage through a French Press. N2a cells (murine neuroblastoma cells) over-expressing wild-type PS1, or mutants M146L or E280A, were obtained from Dr. Sangram Sisodia (University of Chicago, Chicago, Ill.). These cells were maintained in 50% Dulbecco's modified Eagle's medium high glucose, 50% Opti-Mem Reduced Serum Media, and 10% fetal calf serum. Cultured cells were pelleted by centrifugation and resuspended in hypotonic buffer (40 mM Tris, pH 7.4, 10 mM NaCl, 1 mM EDTA, and 0.5 mM DTT) for 20 minutes before being lysed with a dounce homogenizer. Nuclear debris from the HeLa and N2a cells were pelleted at 3000 rpm for 30 minutes. The resulting supernatants were ultracentrifuged at 100,000×g for 1 hour. The pellet that contained total cell membrane was resuspended in Buffer A. Mouse brains overexpressing knock-in wild type or M146V PS1 (gift from Dr. Hui Zheng, Amylin Pharmaceuticals, San Diego, Calif.) were homogenized with dounce homogenizer. The cell lysate was centrifuged at 3000 rpm for 30 minutes. The supernatants were ultracentrifuged at 100,000×g for 1 hour. Protein concentration was determined with the DC Protein Assay Kit according to the manufacturer's instructions (Bio-Rad, Hercules, Calif.).
(§2) An in vitro γ-secretase assay using a novel recombinant APP-derived substrate (termed “Sb4”) is disclosed in co-pending application U.S. Ser. No. 12/776,141. In the present assay based on a Notch-derived substrate, N1-Sb1 was incubated with the cell membrane fraction, prepared as described above, in the presence of 0.25% CHAPSO and 1×PIPES buffer (50 mM PIPES, pH 7.0, 150 mM KCl, 5 mM CaCl2, 5 mM MgCl2. The reaction was incubated at 37° C. for 2 hours. The Perkin Elmer AlphaScreen™ detection system was employed to assay for Notch cleavage. AlphaScreen (PerkinElmer Life and Analytical Sciences, Shelton, Conn.) is a bead based non-radioactive Amplified Luminescent Proximity Homogeneous Assay (ALPHA). When a biological interaction brings the beads together, a cascade of chemical reactions acts to produce a greatly amplified signal. Specifically, upon laser excitation, a photosensitizer in the “Donor” bead converts ambient (triplet) oxygen to the more reactive singlet state. The singlet state oxygen molecules diffuse into the solvent, and may react with a thioxene derivative in the Acceptor bead if nearby, generating chemiluminescence at 370 nm that further activates fluorophores contained in the same bead. The fluorophores subsequently emit light at 520-620 nm. In the absence of a specific biological interaction, the singlet state oxygen molecules produced by the donor bead go undetected without the close proximity of the acceptor bead. As a result no fluorescence signal at 520-620 nm is produced.
(§3) In the present system, antibody SM320, Protein A-conjugated acceptor beads, and Streptavidin-conjugated donor beads (PerkinElmer) were added to the reaction at a final concentration of 0.2 μg/ml, 2.5 μg/ml and 5 μg/ml, respectively (diagrammed in FIG. 5A). The reaction was incubated in the dark at room-temperature for 4 hours. The ALPHA signal was detected using the Envision plate reader (Perkin Elmer). The reactions were excited at 680 nm and signal was detected at 615 nm.
(§4) The effects of PS1 FAD mutations on Notch cleavage were determined using the new γ-secretase assay described in Example 2. The activities of two PS1 FAD mutations—PS1 M146L and E280A were compared against wild-type PS1 (WT), which has been previously studied (25). Total membrane was isolated from N2a cells that stably express WT, M146L, or E280A mutants. N1-Sb1 was incubated with these membranes and the resulting cN1-Sb1 was detected with SM320. […] The M146L and E280A mutants had 40% and 14% activity remaining, respectively, compared to the activity of the wild type (FIG. 7A). […]

[2] = biological target: T2, M146L PS1 γ-secretase (Homo sapiens, UniProt P49768, M146L); assay: In vitro N1-Sb1 γ-secretase assay, membrane of N2a cells expressing M146L PS1; assay type: biochemical, murine; settings: M146L PS1, N2a membrane
T2 construct: total membrane
Method: as §1, §2, §3, §4

[3] = biological target: T3, wild-type PS1 γ-secretase (Homo sapiens, UniProt P49768); assay: In vitro N1-Sb1 γ-secretase assay, membrane of N2a cells expressing wild-type PS1; assay type: biochemical, murine; settings: for reactivity (rate of γ-secretase cleavage) compared with WT substrate: WT PS1, N2a membrane
T3 construct: total membrane
Method: as §1, §2, §3, §4

[4] = biological target: T4, WT PS1 γ-secretase (knock-in mouse brain) (Mus musculus, UniProt P49769); assay: In vitro N1-Sb1 γ-secretase assay, knock-in wild type PS1 mouse brain membrane; assay type: biochemical
T4 construct: Total membrane from these mouse brains was isolated; tissue gift from Dr. Hui Zheng; host or cells: mouse brain (PS1 knock-in), total membrane
Method: as §1, with “The pellet that contained total cell membrane was resuspended in Buffer A. Mouse brains overexpressing knock-in wild type or M146V PS1 (gift from Dr. Hui Zheng, Amylin Pharmaceuticals, San Diego, Calif.) were homogenized with dounce homogenizer. The cell lysate was centrifuged at 3000 rpm for 30 minutes. The supernatants were ultracentrifuged at 100,000×g for 1 hour.” left out
(§5) An in vitro γ-secretase assay using a novel recombinant APP-derived substrate (termed “Sb4”) is disclosed in co-pending application U.S. Ser. No. 12/776,141. […] As a result no fluorescence signal at 520-620 nm is produced.
(§6) In the present system, antibody SM320, Protein A-conjugated acceptor beads, and Streptavidin-conjugated donor beads (PerkinElmer) were added to the reaction at a final concentration of 0.2 μg/ml, 2.5 μg/ml and 5 μg/ml, respectively (diagrammed in FIG. 5A). […] The ALPHA signal was detected using the Envision plate reader (Perkin Elmer). The reactions were excited at 680 nm and signal was detected at 615 nm.
(§7) Mouse brain specimens were obtained that either expressed knock-in wild type PS1 or the M146V PS1 mutation (25, 26). […] The cN1-Sb1 cleavage product was detected with the new in-vitro γ-secretase assay of Example 2. […]

[5] = test system: M146V PS1 γ-secretase (knock-in mouse brain); assay: In vitro N1-Sb1 γ-secretase assay, knock-in M146V PS1 mouse brain membrane; assay type: biochemical
Method: as §1, §5, §6, §7

[6] = biological target: T5, γ-secretase (HeLa membrane) (Homo sapiens, UniProt P49768); assay: In vitro N1-Sb1 γ-secretase assay (ALPHA detection with SM320), HeLa membrane; assay type: biochemical
T5 construct: host or cells: HeLa-S3 cells, total membrane fraction
Method: as §1
An in vitro γ-secretase assay using a novel recombinant APP-derived substrate (termed “Sb4”) is disclosed in co-pending application U.S. Ser. No. 12/776,141. In the present assay based on a Notch-derived substrate, N1-Sb1 was incubated with the cell membrane fraction, prepared as described above, in the presence of 0.25% CHAPSO and 1×PIPES buffer (50 mM PIPES, pH 7.0, 150 mM KCl, 5 mM CaCl2, 5 mM MgCl2. The reaction was incubated at 37° C. for 2 hours. The Perkin Elmer AlphaScreen™ detection system was employed to assay for Notch cleavage. AlphaScreen (PerkinElmer Life and Analytical Sciences, Shelton, Conn.) is a bead based non-radioactive Amplified Luminescent Proximity Homogeneous Assay (ALPHA). When a biological interaction brings the beads together, a cascade of chemical reactions acts to produce a greatly amplified signal. Specifically, upon laser excitation, a photosensitizer in the “Donor” bead converts ambient (triplet) oxygen to the more reactive singlet state. […] As a result no fluorescence signal at 520-620 nm is produced.
as §6
HeLa membrane was incubated with N1-Sb1 substrate in the presence of 0.25% CHAPSO. The γ-secretase cleavage product (cN1-Sb1) was detected by the PerkinElmer proximity assay (ALPHA) using the SM320 antibody, Protein A-conjugated acceptor-beads (which bind SM320) and streptavidin-conjugated donor-beads (which bind biotin) (FIG. 5A). cN1-Sb1 levels in DMSO-treated assay was 10-fold higher than in the presence of the inhibitor L-685,458 (L458; structure shown below)-treated assay. […]

[7] = read-out: Km for N1-Sb1 cleavage

B1: C1752A: N1-Sb1 substrate with P2 residue Cys 1752 substituted with Ala (protein, UniProt P46531 1733-1812, looked up, variant C1752A)
chain: QLHFMYVAAAAFVLLFFVGAGVLLSRKRRRQHGQLWFPEGFKVSEASKKKRREPLGEDSVGLKPLKNASDGALMDDNQNE
modifications: biotinylated AviTag
notes: N1-Sb1 substrate with P2 residue Cys 1752 substituted with Ala
reactivity (rate of γ-secretase cleavage) compared with WT substrate [1]: 20-30%
reactivity (rate of γ-secretase cleavage) compared with WT substrate [2]: 20-30%
reactivity (rate of γ-secretase cleavage) compared with WT substrate [3]: 20-30%

B4: N1-Sb1: biotinylated recombinant substrate: human Notch1 fragment (residues 1733-1812) with AviTag (protein)
chain: PAQLHFMYVAAAAFVLLFFVGCGVLLSRKRRRQHGQLWFPEGFKVSEASKKKRREPLGEDSVGLKPLKNASDGALMDDNQN
modifications: biotinylated; Notch substrate N1Sb1 (NTM2)
notes: biotinylated recombinant substrate: human Notch1 fragment (residues 1733-1812) with AviTag
N1-Sb1 cleavage activity remaining compared to wild type PS1 [1]: 14%
Vmax for N1-Sb1 cleavage [1]: 49 U/μg/min
Km [1, 7]: 0.05 µM
N1-Sb1 cleavage activity remaining compared to wild type PS1 [2]: 40%
Vmax for N1-Sb1 cleavage [2]: 163 U/μg/min
Km [2, 7]: 0.049 µM
Vmax for N1-Sb1 cleavage ([4]; WT PS1 mouse brain membrane): 52 U/μg/min
Km ([4]; WT PS1 mouse brain membrane, read-out: Km for N1-Sb1 cleavage): 0.06 µM
Vmax for N1-Sb1 cleavage ([3]; PS1 wild-type, N2a membrane): 293 U/μg/min
Km ([3]; PS1 wild-type, N2a membrane, read-out: Km for N1-Sb1 cleavage): 0.07 µM
Notch (N1-Sb1) cleavage activity compared to wild-type PS1 ([5]; M146V PS1 mouse brain membrane): less activity
Vmax for N1-Sb1 cleavage ([5]; M146V PS1 mouse brain membrane): 40 U/μg/min
Km ([5]; M146V PS1 mouse brain membrane, read-out: Km for N1-Sb1 cleavage): 0.048 µM
Vmax of N1-Sb1 cleavage ([6]; arbitrary units): 38 Unit/μg/min
Km ([6]; read-out: apparent Km of N1-Sb1 cleavage by γ-secretase): 0.15 ± 0.03 µM

The next lines start with the values.

reactivity (rate of γ-secretase cleavage) compared with WT substrate [1]: no effect
reactivity (rate of γ-secretase cleavage) compared with WT substrate [2]: 141.3±17.9%
reactivity (rate of γ-secretase cleavage) compared with WT substrate [3]: no effect
B2: C1752V: N1-Sb1 substrate with P2 residue Cys 1752 substituted with Val (protein, UniProt P46531 1733-1812, looked up, variant C1752V)
chain: QLHFMYVAAAAFVLLFFVGVGVLLSRKRRRQHGQLWFPEGFKVSEASKKKRREPLGEDSVGLKPLKNASDGALMDDNQNE
modifications: biotinylated AviTag
notes: N1-Sb1 substrate with P2 residue Cys 1752 substituted with Val

reactivity (rate of γ-secretase cleavage) compared with WT substrate [1]: 185.5±7.4%
reactivity (rate of γ-secretase cleavage) compared with WT substrate [2]: 166.4±6.1%
reactivity (rate of γ-secretase cleavage) compared with WT substrate ([4]; WT PS1 knock-in mouse brain): no effect
reactivity (rate of γ-secretase cleavage) compared with WT substrate [3]: no effect
reactivity (rate of γ-secretase cleavage) compared with WT substrate ([5]; M146V knock-in PS1 mouse brain): 127.4±3.7%
B3: C1752M: N1-Sb1 substrate with P2 residue Cys 1752 substituted with Met (protein, UniProt P46531 1733-1812, looked up, variant C1752M)
chain: QLHFMYVAAAAFVLLFFVGMGVLLSRKRRRQHGQLWFPEGFKVSEASKKKRREPLGEDSVGLKPLKNASDGALMDDNQNE
modifications: biotinylated AviTag
notes: N1-Sb1 substrate with P2 residue Cys 1752 substituted with Met
